Data as given in PMC3331996 (Developmental Cell, 2012).

Target: the molecule itself
Assay: combined sedimentation/Stokes analysis

B1: Sec7ΔC+HDS1, Sec7 residues 203-1220, purified (domain or fragment, yeast, UniProt P11075 203-1220, looked up)
chain: PRSTHTRNISLSSNGSNTNSTIILVKTTLETILNDKDIKKNSNAQKAIERTLQKFKEFDPQTTNNPHYVDSILVFEALRASCRTKSSKVQSLALDCLSKLFSFRSLDETLLVNPPDSLASNDQRQDAADGITPPPKQKIIDAAIDTISDCFQGEGTDDRVELQIVRALSSCILEEDSSSLCHGASLLKAIRTIYNVFVFSLNPSNQGIAQATLTQIISSVYDKIDLKQSTSSAVSLSTKNHQQQSAIELSEASENAETPAPLTLENMDKLNDDEERLMDAQQPDSIAITNQDLAVKDAFLVFRVMAKICAKPLETELDMRSHAVRSKLLSLHIIYSIIKDHIDVFLSHNIFLPGKERVCFIDSIRQYLRLVLSRNAASPLAPVFEVTLEIMWLLIANLRADFVKEIPVFLTEIYFPISELTTSTSQQKRYFLSVIQRICNDPRTLVEFYLNYDCNPGMPNVMEITVDYLTRLALTRVEITQTQRSYYDEQISKSLSTYNFSQLPLLTSSNLSSSPDVGQVNLLFPLDFALKMVSLNCIVSVLRSLSSWAHKALNPNTHTANKVLLNTTSSARQESRSSLSNDVRSSIMTSNDDFKPTYEDEESRSLSSQNIDADDPTQFENLKLRKTALSECIAIFNNKPKKAIPVLIKKGFLKDDSPISIAKWLLETEGLDMAAVGDYLGEGDDKNIAIMHAFVDEFDFTGMSIVDALRSFLQSFRLPGEGQKIDRFMLKFAERFVDQNPGVFSKADTAYVLSYSLIMLNTDLHSSQIKNKMSLQEFLENNEGIDNGRDLPRDFLEGLFNEIANNEIKLISEQHQAMLSGDTNLVQQQQSAFNFFNSRDLTREAYNQVSKEISSKTELVFKNLNKNKGGPDVYYAASHVEHVKSIFETLWMSFLAALTPPFKDYDDIDTTNKCLEGLKISIKIASTFRINDARTSFVGALVQFCNLQNLEEIKVKNVNAMVILLEVALSEGNYLEGSWKDILLVVSQMERLQLISKGIDRDTVPDVAQARVANPRVS
B1 was tested, and the “stoichiometry N” value was 2.

B2: Sec7f, Sec7(203-2009) purified fragment (domain or fragment, yeast, UniProt P11075 203-2009, looked up)
chain: PRSTHTRNISLSSNGSNTNSTIILVKTTLETILNDKDIKKNSNAQKAIERTLQKFKEFDPQTTNNPHYVDSILVFEALRASCRTKSSKVQSLALDCLSKLFSFRSLDETLLVNPPDSLASNDQRQDAADGITPPPKQKIIDAAIDTISDCFQGEGTDDRVELQIVRALSSCILEEDSSSLCHGASLLKAIRTIYNVFVFSLNPSNQGIAQATLTQIISSVYDKIDLKQSTSSAVSLSTKNHQQQSAIELSEASENAETPAPLTLENMDKLNDDEERLMDAQQPDSIAITNQDLAVKDAFLVFRVMAKICAKPLETELDMRSHAVRSKLLSLHIIYSIIKDHIDVFLSHNIFLPGKERVCFIDSIRQYLRLVLSRNAASPLAPVFEVTLEIMWLLIANLRADFVKEIPVFLTEIYFPISELTTSTSQQKRYFLSVIQRICNDPRTLVEFYLNYDCNPGMPNVMEITVDYLTRLALTRVEITQTQRSYYDEQISKSLSTYNFSQLPLLTSSNLSSSPDVGQVNLLFPLDFALKMVSLNCIVSVLRSLSSWAHKALNPNTHTANKVLLNTTSSARQESRSSLSNDVRSSIMTSNDDFKPTYEDEESRSLSSQNIDADDPTQFENLKLRKTALSECIAIFNNKPKKAIPVLIKKGFLKDDSPISIAKWLLETEGLDMAAVGDYLGEGDDKNIAIMHAFVDEFDFTGMSIVDALRSFLQSFRLPGEGQKIDRFMLKFAERFVDQNPGVFSKADTAYVLSYSLIMLNTDLHSSQIKNKMSLQEFLENNEGIDNGRDLPRDFLEGLFNEIANNEIKLISEQHQAMLSGDTNLVQQQQSAFNFFNSRDLTREAYNQVSKEISSKTELVFKNLNKNKGGPDVYYAASHVEHVKSIFETLWMSFLAALTPPFKDYDDIDTTNKCLEGLKISIKIASTFRINDARTSFVGALVQFCNLQNLEEIKVKNVNAMVILLEVALSEGNYLEGSWKDILLVVSQMERLQLISKGIDRDTVPDVAQARVANPRVSYESSRSNNTSFFDVWGKKATPTELAQEKHHNQTLSPEISKFISSSELVVLMDNIFTKSSELSGNAIVDFIKALTAVSLEEIESSENASTPRMFSLQKMVDVCYYNMDRIKLEWTPLWAVMGKAFNKIATNSNLAVVFFAIDSLRQLSMRFLDIEELSGFEFQHDFLKPFEYTVQNSGNTEVQEMIIECFRNFILTKSESIKSGWKPILESLQYTARSSTESIVLKTQLLVSNDIVTNHFENVFSQEDAFSELVGVFREITKNKRFQKLSLHALESLRKMTQNVADICFYNENKTEEERKHNDALLRGKDIFQDVWFPMLFCFNDTIMTAEDLEVRSRALNYMFDALVAYGGKFNDDFWEKICKKLLFPIFGVLSKHWEVNQFNSHDDLSVWLSTTLIQALRNLIALFTHYFESLNRMLDGFLGLLVSCICQENDTIARIGRSCLQQLILQNVSKFNEYHWNQIGDVFDKLFDLTTANELFDYDPLQQGRKSSVSHHQTTNDTSQHSDDDSNDRRENDSNISETVERAHQEESSEDVGGDMVETLNGQTKLNNGNSVPTVKDELNPKPASLSIPKKTKHMKRNESNEDIRRRINIKNSIVVKCVLQLLMIELLNELFENEDFAHCIPYKEAIRITRLLEKSYEFSRDFNEDYGLRTRLVEARVVDKIPNLLKQETSAAAVLLDIMFQLYLNDDEKKADLITRLITICIQVVEGYVSLDDRTMERSINAWRSVIVEILQGYYEFDDEDFRLYCPAMYALVIQILDKSVPTELRHAIKQFLSRVGELYLSTD
In the case of B2, the “stoichiometry N” value is reported as 2.
